Source: US20150064134A1

How the values were obtained:
Assay in all cases: cell-based or functional assay
[1] = target: T1, ALK4(h) (human) (UniProt P36896)
T1 sequence (looked up): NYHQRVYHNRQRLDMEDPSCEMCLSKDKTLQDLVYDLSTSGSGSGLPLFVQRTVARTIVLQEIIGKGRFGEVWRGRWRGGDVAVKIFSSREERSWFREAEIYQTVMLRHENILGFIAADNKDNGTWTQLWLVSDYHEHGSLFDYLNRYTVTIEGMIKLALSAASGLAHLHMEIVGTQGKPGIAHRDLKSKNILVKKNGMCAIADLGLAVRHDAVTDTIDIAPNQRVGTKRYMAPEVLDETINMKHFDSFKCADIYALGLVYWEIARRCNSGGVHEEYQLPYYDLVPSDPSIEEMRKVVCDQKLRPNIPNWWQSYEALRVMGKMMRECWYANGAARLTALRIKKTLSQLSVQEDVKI

[2] = target: Arg(h) (human) (UniProt P42684)
Arg(h) (human), sequence (P42684 38-1182 limits assumed): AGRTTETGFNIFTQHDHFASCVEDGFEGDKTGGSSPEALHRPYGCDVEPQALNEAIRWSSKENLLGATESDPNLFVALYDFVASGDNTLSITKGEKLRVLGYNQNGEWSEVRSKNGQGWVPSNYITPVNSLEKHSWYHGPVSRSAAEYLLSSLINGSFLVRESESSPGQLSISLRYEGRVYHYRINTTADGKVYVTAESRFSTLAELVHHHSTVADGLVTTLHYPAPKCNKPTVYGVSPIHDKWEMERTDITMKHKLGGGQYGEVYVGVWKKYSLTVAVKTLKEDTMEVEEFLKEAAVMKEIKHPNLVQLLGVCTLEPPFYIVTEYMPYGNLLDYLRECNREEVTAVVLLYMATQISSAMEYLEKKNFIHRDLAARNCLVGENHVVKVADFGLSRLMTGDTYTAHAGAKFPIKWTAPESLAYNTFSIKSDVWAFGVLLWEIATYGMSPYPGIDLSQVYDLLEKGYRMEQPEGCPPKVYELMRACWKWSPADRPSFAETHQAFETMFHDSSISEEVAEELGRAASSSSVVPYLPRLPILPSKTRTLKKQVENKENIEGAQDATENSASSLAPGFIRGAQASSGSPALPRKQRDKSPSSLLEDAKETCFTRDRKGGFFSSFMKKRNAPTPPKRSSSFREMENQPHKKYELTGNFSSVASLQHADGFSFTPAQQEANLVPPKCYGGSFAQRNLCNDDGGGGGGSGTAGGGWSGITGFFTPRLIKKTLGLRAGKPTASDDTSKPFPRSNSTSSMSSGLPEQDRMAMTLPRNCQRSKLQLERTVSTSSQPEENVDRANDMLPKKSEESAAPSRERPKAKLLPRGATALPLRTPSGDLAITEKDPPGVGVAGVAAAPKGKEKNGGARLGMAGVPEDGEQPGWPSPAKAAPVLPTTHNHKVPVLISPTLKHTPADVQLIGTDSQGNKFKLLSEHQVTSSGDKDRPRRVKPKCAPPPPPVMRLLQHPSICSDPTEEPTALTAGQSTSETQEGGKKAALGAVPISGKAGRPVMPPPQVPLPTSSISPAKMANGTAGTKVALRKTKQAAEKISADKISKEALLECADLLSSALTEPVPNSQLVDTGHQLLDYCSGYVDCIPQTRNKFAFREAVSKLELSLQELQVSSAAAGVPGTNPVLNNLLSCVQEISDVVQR

[3] = target: Aurora-B(h) (human) (UniProt Q96GD4)
Aurora-B(h) (human), sequence (Q96GD4 whole entry): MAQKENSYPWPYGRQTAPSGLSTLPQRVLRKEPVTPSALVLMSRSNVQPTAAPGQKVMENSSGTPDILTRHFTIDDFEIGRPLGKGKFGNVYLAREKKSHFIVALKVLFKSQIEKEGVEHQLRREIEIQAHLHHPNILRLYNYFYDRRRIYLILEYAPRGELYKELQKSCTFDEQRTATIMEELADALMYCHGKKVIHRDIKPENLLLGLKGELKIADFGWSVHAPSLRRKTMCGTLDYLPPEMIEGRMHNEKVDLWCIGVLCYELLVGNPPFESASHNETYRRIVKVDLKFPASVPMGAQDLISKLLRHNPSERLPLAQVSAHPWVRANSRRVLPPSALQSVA

[4] = target: BTK(R28H)(h) (human) (UniProt Q06187)
[5] = target: CK2(h) (human) (UniProt P68400)
[6] = target: DAPK1(h) (human) (UniProt P53355)
[7] = target: DYRK2(h) (human) (UniProt Q92630)
[8] = target: T2, EphA5(h) (human) (UniProt P54756)
T2 sequence (looked up): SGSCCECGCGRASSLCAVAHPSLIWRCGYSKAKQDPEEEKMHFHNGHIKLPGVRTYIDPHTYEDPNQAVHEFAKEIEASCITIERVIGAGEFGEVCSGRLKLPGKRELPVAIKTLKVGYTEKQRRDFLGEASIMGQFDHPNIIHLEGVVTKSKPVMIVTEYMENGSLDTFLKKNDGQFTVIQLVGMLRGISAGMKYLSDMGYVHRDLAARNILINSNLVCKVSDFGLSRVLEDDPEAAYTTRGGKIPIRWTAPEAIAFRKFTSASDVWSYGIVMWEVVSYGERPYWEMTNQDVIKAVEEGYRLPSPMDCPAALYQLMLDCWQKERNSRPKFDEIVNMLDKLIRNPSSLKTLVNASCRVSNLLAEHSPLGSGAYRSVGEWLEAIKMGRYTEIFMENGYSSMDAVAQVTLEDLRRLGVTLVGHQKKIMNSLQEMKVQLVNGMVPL

[9] = target: GSK3α(h) (human) (UniProt P49840)
[10] = target: IR(h), activated (human) (UniProt P06213)
IR(h), activated (human), sequence (P06213 1005-1310 limits assumed): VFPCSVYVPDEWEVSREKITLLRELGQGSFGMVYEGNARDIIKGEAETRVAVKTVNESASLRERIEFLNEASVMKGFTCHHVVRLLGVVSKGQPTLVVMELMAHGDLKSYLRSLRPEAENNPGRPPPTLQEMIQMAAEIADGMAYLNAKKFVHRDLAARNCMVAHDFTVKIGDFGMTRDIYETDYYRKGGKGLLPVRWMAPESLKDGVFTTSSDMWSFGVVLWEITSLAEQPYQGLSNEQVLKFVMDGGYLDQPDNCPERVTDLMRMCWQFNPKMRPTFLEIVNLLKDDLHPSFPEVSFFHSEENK

[11] = target: IRR(h) (human) (UniProt P14616)
IRR(h) (human), sequence (P14616 944-1297 limits assumed): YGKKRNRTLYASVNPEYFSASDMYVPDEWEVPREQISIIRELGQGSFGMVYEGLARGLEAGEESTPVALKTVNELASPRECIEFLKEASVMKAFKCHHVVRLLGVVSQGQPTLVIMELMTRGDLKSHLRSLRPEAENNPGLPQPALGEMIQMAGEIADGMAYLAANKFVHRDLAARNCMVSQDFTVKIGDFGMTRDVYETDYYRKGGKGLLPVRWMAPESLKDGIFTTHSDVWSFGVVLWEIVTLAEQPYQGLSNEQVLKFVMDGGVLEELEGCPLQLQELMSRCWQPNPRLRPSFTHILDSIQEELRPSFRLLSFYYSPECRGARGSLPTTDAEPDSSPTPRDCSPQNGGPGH

[12] = target: LOK(h) (human) (UniProt O94804)
[13] = target: MARK1(h) (human) (UniProt Q9P0L2)
[14] = target: MINK(h) (human) (UniProt Q8N4C8)
[15] = target: MLK1(h) (human) (UniProt P80192)
[16] = target: MSK1(h) (human) (UniProt O75582)
[17] = target: T3, MST1(h) (human) (UniProt Q13043)
T3 sequence (looked up): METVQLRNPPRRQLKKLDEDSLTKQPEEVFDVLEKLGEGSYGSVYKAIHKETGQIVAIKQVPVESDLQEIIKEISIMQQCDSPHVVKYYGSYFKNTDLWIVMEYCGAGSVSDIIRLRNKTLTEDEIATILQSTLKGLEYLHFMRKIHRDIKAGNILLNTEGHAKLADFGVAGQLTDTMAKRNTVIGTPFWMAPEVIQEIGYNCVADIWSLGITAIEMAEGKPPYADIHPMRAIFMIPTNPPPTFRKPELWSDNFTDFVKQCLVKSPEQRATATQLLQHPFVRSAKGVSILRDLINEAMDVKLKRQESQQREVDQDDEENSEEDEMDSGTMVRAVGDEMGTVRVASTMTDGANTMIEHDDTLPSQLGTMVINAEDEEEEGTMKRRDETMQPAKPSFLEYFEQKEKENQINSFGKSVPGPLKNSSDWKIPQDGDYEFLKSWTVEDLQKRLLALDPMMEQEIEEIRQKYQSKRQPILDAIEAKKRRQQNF

[18] = target: MST3(h) (human) (UniProt Q9Y6E0)
[19] = target: T4, Mer(h) (human) (UniProt Q12866)
T4 sequence (looked up): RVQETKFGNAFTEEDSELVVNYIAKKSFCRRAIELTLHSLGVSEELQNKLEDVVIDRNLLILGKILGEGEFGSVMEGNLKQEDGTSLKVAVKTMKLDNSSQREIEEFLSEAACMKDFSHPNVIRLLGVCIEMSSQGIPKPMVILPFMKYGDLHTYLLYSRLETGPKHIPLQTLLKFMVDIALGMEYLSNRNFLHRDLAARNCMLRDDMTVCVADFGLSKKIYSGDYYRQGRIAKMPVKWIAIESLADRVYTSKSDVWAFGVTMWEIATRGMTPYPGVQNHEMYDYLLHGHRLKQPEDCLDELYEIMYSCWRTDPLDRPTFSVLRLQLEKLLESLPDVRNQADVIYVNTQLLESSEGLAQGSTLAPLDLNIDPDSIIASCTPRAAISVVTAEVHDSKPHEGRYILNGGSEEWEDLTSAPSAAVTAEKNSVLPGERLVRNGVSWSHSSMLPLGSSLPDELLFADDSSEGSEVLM

[20] = target: NEK7(h) (human) (UniProt Q8TDX7)
[21] = target: PKBγ(h) (human) (UniProt Q9Y243)
PKBγ(h) (human), sequence (Q9Y243 whole entry): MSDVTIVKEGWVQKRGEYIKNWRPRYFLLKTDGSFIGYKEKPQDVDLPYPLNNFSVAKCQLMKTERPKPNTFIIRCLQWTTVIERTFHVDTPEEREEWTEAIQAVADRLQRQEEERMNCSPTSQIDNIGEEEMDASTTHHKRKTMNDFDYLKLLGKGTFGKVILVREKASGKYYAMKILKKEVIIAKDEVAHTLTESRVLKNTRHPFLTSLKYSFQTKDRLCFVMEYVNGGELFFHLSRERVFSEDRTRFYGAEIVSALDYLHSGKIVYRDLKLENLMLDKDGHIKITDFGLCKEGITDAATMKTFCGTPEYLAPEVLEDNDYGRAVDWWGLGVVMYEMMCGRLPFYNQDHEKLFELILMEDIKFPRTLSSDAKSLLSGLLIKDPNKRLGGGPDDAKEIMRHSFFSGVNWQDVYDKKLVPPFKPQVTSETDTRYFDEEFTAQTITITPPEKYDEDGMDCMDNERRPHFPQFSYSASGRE

[22] = target: mTOR(h) (human) (UniProt P42345)
mTOR(h) (human), sequence (P42345 1362-2549 limits assumed): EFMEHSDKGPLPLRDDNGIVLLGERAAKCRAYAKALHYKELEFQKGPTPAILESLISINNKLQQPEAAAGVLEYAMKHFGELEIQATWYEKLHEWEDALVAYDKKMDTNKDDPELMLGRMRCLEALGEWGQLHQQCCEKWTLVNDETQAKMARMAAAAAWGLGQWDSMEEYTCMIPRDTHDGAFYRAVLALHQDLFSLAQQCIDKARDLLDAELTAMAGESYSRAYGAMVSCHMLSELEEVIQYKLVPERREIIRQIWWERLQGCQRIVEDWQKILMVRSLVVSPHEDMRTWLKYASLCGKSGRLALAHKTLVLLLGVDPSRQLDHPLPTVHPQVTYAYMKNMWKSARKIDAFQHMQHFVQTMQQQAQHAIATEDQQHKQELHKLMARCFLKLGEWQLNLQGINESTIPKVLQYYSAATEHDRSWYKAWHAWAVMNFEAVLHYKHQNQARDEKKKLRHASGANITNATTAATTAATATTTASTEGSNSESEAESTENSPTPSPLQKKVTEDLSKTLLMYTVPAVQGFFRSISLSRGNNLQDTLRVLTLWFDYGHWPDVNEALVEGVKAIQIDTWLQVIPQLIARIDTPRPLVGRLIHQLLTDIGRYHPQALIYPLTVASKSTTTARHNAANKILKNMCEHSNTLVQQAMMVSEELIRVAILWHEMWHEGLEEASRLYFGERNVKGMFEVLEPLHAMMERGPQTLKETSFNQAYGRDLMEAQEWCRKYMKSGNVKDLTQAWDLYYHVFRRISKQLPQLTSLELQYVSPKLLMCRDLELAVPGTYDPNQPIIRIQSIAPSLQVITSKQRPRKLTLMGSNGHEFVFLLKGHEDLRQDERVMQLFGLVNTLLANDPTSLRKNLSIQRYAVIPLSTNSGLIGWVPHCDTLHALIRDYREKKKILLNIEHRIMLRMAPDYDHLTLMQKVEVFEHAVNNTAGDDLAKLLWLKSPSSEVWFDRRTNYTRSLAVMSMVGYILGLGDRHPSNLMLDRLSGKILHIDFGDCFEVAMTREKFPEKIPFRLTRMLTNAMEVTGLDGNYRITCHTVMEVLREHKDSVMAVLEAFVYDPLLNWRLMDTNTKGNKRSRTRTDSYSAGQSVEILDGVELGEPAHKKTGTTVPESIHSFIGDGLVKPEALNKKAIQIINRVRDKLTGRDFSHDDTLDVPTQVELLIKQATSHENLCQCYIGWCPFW

| % activity at 100 µM [1] | % activity at 100 µM [2] | % activity at 100 µM [3] | % activity at 100 µM [4] | % activity at 100 µM [5] | % activity at 100 µM [6] | % activity at 100 µM [7] | % activity at 100 µM [8] | % activity at 100 µM [9] | % activity at 100 µM [10] | % activity at 100 µM [11] | % activity at 100 µM [12] | % activity at 100 µM [13] | % activity at 100 µM [14] | % activity at 100 µM [15] | % activity at 100 µM [16] | % activity at 100 µM [17] | % activity at 100 µM [18] | % activity at 100 µM [19] | % activity at 100 µM [20] | also measured | Substance |
| --- | --- | --- | --- | --- | --- | --- | --- | --- | --- | --- | --- | --- | --- | --- | --- | --- | --- | --- | --- | --- | --- |
| 130% | 84% | 150% | 24% | 101% | 36% | 195% | 24% | 164% | 59% | 8% | 18% | 120% | 52% | 33% | 28% | 6% | 36% | 50% | 87% | % activity at 100 µM [21]: 41%; % activity at 100 µM [22]: 93% | MMI-0400 (peptide) |
| 140% | 72% | 128% | 74% | 90% | 46% | 155% | 18% | 157% | 79% | 8% | 37% | 132% | 48% | 40% | 32% | 14% | 45% | 52% | 84% | % activity at 100 µM [21]: 20%; % activity at 100 µM [22]: 91% | MMI-0300 (peptide) |
| 81% | 22% | 5% | 10% | 93% | 0% | 127% | 42% | 175% | 90% | 10% | 7% | 110% | 5% | 43% | 8% | 3% | 4% | 17% | 89% | % activity at 100 µM [21]: 20%; % activity at 100 µM [22]: 135% | MMI-0500 (peptide) |
